Experimental data taken from publication PMC4728560 (Scientific Reports, 2016).
Entries after “also recorded” stand apart in the source; their conditions may differ.

Columns and labels:
[1] = target: T1, Bcl-xL (Homo sapiens, UniProt Q07817, DEL27-82); assay: Heterocomplex formation with Bcl-xL (native MS, SEC-MALS, gel filtration); type: binding; conditions: native MS: Bcl-xL(Δ27-81ΔCT), equimolar 100 μM, 30 °C, checked at 5 μM (for TCTP-R21A)
T1 construct: one containing the fragment 1-26, and the other the fragment 81-209; 6His (N, cleaved yes); made in house; host or cells: Escherichia coli BL21 (DE3) pRARE2
T1 sequence (Q07817 with tags, fused parts or gaps DEL27-82): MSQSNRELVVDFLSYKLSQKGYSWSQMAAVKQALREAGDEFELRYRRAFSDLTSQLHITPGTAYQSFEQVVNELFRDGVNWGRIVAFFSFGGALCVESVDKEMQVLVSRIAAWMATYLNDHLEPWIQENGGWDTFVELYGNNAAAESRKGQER
Method: When not specified, proteins tested for binding experiments were mixed at 100 μM, dialyzed against 10 mM CHES pH 9, 50 mM NaCl, 1 mM DTT or TCEP, depending on the analysis, and heated overnight at 30 °C.
For binding experiments, 100 to 200PL of protein mixture were loaded on a size exclusion chromatography (S200, GE Healthcare) column, while elution profiles were measured by UV absorption at 280 nm.
SEC-MALS experiments were performed on a multi-angle light scattering detector (miniDAWN TREOS, Wyatt Technologies) coupled in-line with SEC and an interferometric refractometer (Optilab T-rEX, Wyatt Technologies). See Supplementary Information for full details.
Prior to any mass spectrometry experiment, protein buffer was exchanged twice against a 50 mM ammonium acetate (NH4Ac) solution at pH 9.0 using microcentrifuge gel filtration columns (Zeba 0.5 ml, Thermo Scientific, Rockford, IL). Protein concentration was determined spectrophotometrically. […]
Supplementary Table 1. Measured molecular weights in denaturing conditions Sample Theoretical molecular Measured molecular Associated mass (Da) mass (Da) species […]
Gel filtration. For binding experiments, 100 to 200PL of protein mixture were loaded on a size exclusion chromatography (S200, GE Healthcare) column, while elution profiles were measured by UV absorption at 280nm. […]

[2] = test system: Bax mediated cytochrome c release, Bcl-xL; assay: Cytochrome c release from purified mitochondria by tBid and Bax in the presence of Bcl-xL; type: biochemical; conditions: mouse liver mitochondria; 5 nM tBid, 50 nM Bax, 300 nM Bcl-xL; 15 min, 30 °C; Western blot
Method: (A–E) in vitro reconstitution assay on liposome permeabilization. […] The treated Bcl-xL was then added to reactions containing ANTS-DPX liposomes, 100 nM Bax and 20 nM of either cBid (A,B) or cBidmt1(C,D) at pH 7. Liposome permeabilization was quantified by fluorescence after 5h incubation at 37 °C where 100% release was defined as the fluorescence change due to lipid solubilization with 1% Triton X-100. […] Error bars, std. dev. n = 3. To compare between the TCTP treated groups and the Control group statistically, two-way ANOVA test was performed for (A–D) and one-way ANOVA test was performed for (E). […] Colored asterisks above each data point indicate the statistical significance (*p < 0.05; **p < 0.01, no asterisks if p ≥ 0.05). A complete statistical analysis is provided in Supplementary Table 2–4. […] Cyto c extra-mito: in the supernatant, analysed by Western blot. […]
to highlight the pre-incubation), pH 9, 30 C° before being added to the mitochondria at their final concentrations. […] Cytochrome c was detected in the mitochondrial fraction (Cyto c intra-mito) or in the supernatant (Cyto c extra-mito) by Western blot analysis. […]
Cytochrome c release assay. […] Mitochondrial pellets and the corresponding supernatant fractions were subjected to SDS-polyacrylamide gel electrophoresis and analyzed by Western blotting for cytochrome c.

[3] = test system: Bcl-xL inhibition of cBid/Bax; assay: In vitro reconstitution liposome permeabilization, cBid/Bax with Bcl-xL; type: biochemical; conditions: ANTS/DPX liposomes, 100 nM Bax, 20 nM cBid, pre-incubation pH 9, 45 min, 37 °C, 5 h, pH 7
From the text: (§1) This purified assay system measures direct interactions in which full-length untagged Bcl-xL inhibits permeabilization by binding full-length caspase 8 cleaved Bid (cBid) and/or full-length untagged Bax, thereby preventing Bax oligomerization in membranes. […] In these assays liposome permeabilization by activated Bax releases the entrapped fluorophore/quencher pair 8-aminonaphthalene-1,3,6-trisulfonic acid (ANTS)/p-xylene-bispyridinium (DPX), resulting in a measurable increase of fluorescence.
(§2) (A–E) in vitro reconstitution assay on liposome permeabilization. […] The treated Bcl-xL was then added to reactions containing ANTS-DPX liposomes, 100 nM Bax and 20 nM of either cBid (A,B) or cBidmt1(C,D) at pH 7. Liposome permeabilization was quantified by fluorescence after 5h incubation at 37 °C where 100% release was defined as the fluorescence change due to lipid solubilization with 1% Triton X-100. […] Error bars, std. dev. n = 3. […] Cyto c extra-mito: in the supernatant, analysed by Western blot. […]
(§3) Figure 10 A,B) or cBid mt1 (Supplementary Figure 10 C,D) at pH 7 to quantify the activity of Bcl-xL inhibition of liposome permeablization. […]
(§4) then added to reactions containing ANTS-DPX liposomes, 100nM Bax and 20nM of either c Bid (A, C) or cBid mt1(B, D) at pH 7 and liposome permeabilization was quantified by fluorescence […]

[4] = test system: Bcl-xL inhibition of cBidmt1/Bax; assay: In vitro reconstitution liposome permeabilization, cBidmt1/Bax with Bcl-xL; type: biochemical; conditions: ANTS/DPX liposomes, 100 nM Bax, 20 nM cBidmt1, pre-incubation pH 9, 45 min, 37 °C, 5 h, pH 7
From the text: as §1, §2, §3, §4

[5] = test system: Bcl-xL; assay: In cellulo BRET between Luciferase-fused TCTP and YFP-fused Bcl-xL; type: cell-based; conditions: MCF-7 cells; donor Luciferase-fused TCTP, acceptor YFP-fused Bcl-xL
From the text: See Supplementary Information for full details.
Twenty-four hours later, cells
Protein expression and purification

B1: TCTP R21A: full-length TCTP protein bearing the mutation R21A (protein)
chain: MIIYRDLISHDEMFSDIYKIAEIADGLCLEVEGKMVSRTEGNIDDSLIGGNASAEGPEGEGTESTVITGVDIVMNHHLQETSFTKEAYKKYIKDYMKSIKGKLEEQRPERVKPFMTGAAEQIKHILANFKNYQFFIGENMNPDGMVALLDYREDGVTPYMIFFKDGLEMEKC
- complex formation with Bcl-xL [1]: no peak; also recorded: no complex formation
- potentiation of Bcl-xL (cytochrome c release) [2]: do not potentiate Bcl-xL
- effect on Bcl-xL inhibition of cBid/Bax-mediated liposome permeabilization [3]: no effect on Bcl-xL activity
- effect on Bcl-xL inhibition of cBidmt1/Bax-mediated liposome permeabilization [4]: no effect on Bcl-xL activity
- BRET signals with Bcl-xL [5]: lack of binding
